B1: anti-Gal3 scFv G03 (scFv, V domains shown, not shown: small tags and cut ends)
VH: EVQLVESGGSLVKPGGSLRLSCAASGFTFSNYAMNWVRQAPGKGLEWISSIYGSSRYIYYADFVKGRFTISRDNAKNSLYLQMNSLRAEDTAVYYCVRSYNGGMDVWGRGTLVTVSS
VL: QSVLTQPASVSGSPGQSITISCAGTSSDVGGYYNVAWYQQHPGKAPKLMIYYDSYRPSGVSNRFSGSKSGNTASLTISGLQAEDEADYYCSSSTGYSTRVFGGGTKLEIK
notes: Periplasmic extract from E. coli; also called G03 (scFv)
B2: anti-Gal3 variant antibody D06-G2 (antibody, V domains shown)
VH: EVQLVESGGGLVKPGGSLRLSCAASGFTFSNYNMNWVRQAPGKGLEWVSSIYGSSRYIYYADSVKGRFTISRDNAKNSLYLQMNSLRAEDTAVYYCVRSGYGGMDVWGRGTLVTVSS
VL: QSALTQPASVSGSPGQSITISCTGTSSDVGGYNGVSWYQQHPGKAPKLMIYYDSYRPSGVSNRFSGSKSGNTASLTISGLQAEDEADYYCSSGTDYSTRVFGQGTKLEIK
notes: Variant of D06 with framework mutations to germline; captured by anti-human Fc in SPR
B3: anti-Gal3 scFv E02 (scFv, V domains shown, not shown: small tags and cut ends)
VH: EVQLVESGGSLVKPGGSLRLSCAASGFTFSNYAMNWVRQAPGKGLEWISSIYGSSRSISYADFVKGRFTISRDNAKNSLYLQMNSLRAEDTAVYYCVRSSYNYYYGNGMDVWGRGTLVTVSS
VL: QSVLTQPASVSGSPGQSITISCAGTSSDVGGYGGVSWYQQHPGKAPKLMIYYDSYRPSGVSNRFSGSKSGNTASLTISGLQAEDEADYYCSSSTSYSTRVFGGGTKLEIK
notes: Periplasmic extract from E. coli; also called E02 (scFv)
B4: anti-Gal3 variant antibody E07-G2 (antibody, V domains shown)
VH: EVQLVESGGGLVKPGGSLRLSCAASGFTFSNYNMNWVRQAPGKGLEWVSNIYGSSRYIYYADSVKGRFTISRDNAKNSLYLQMNSLRAEDTAVYYCVRSYYGGMDVWGRGTLVTVSS
VL: QSALTQPRSVSGSPGQSVTISCTGTSSDVGGYYSVSWYQQHPGKAPKLMIYYDSNRPSGVPDRFSGSKSGNTASLTISGLQAEDEADYYCSSYTGYSTRVFGQGTKLEIK
notes: Variant of E07 with framework mutations to germline; captured by anti-human Fc in SPR
B5: anti-Gal3 scFv H10 (scFv, V domains shown, not shown: small tags and cut ends)
VH: EVQLVESGGSLVKPGGSLRLSCAASGFTFSNYYMNWVRQAPGKGLEWISYINGASRDISYADFVKGRFTISRDNAKNSLYLQMNSLRAEDTAVYYCVRSSYGYSNYGSGMDVWGRGTLVTVSS
VL: QSVLTQPASVSGSPGQSITISCAGTSSDVGGSYNVAWYQQHPGKAPKLMIYNDANRPSGVSNRFSGSKSGNTASLTISGLQAEDEADYYCSSNTADSTRVFGGGTKLEIK
notes: Periplasmic extract from E. coli; also called H10 (scFv)
B6: anti-Gal3 scFv E01 (scFv, V domains shown, not shown: small tags and cut ends)
VH: EVQLVESGGSLVKPGGSLRLSCAASGFTFSNNYMNWVRQAPGKGLEWISNINGASRNIAYADFVKGRFTISRDNAKNSLYLQMNSLRAEDTAVYYCVRSSDYDGGMDVWGRGTLVTVSS
VL: QSVLTQPASVSGSPGQSITISCAGTSSDVGGNSYVSWYQQHPGKAPKLMIYYDSYRPSGVSNRFSGSKSGNTASLTISGLQAEDEADYYCSSSTYGSTRVFGGGTKLEIK
notes: Periplasmic extract from E. coli; also called E01 (scFv)
B7: anti-Gal3 scFv B12 (scFv, V domains shown, not shown: small tags and cut ends)
VH: EVQLVESGGSLVKPGGSLRLSCAASGFTFSNDDMNWVRQAPGKGLEWISSIDGSSRSIYYADFVKGRFTISRDNAKNSLYLQMNSLRAEDTAVYYCVRSSGYSGGGMDVWGRGTLVTVSS
VL: QSVLTQPASVSGSPGQSITISCAGTSSDVGGSYNVAWYQQHPGKAPKLMIYSDSYRPSGVSNRFSGSKSGNTASLTISGLQAEDEADYYCSSYTSNSARVFGGGTKLEIK
notes: Periplasmic extract from E. coli; also called B12 (scFv)
B8: anti-Gal3 variant antibody E07-G1 (antibody, V domains shown)
VH: EVQLVESGGGLVKPGGSLRLSCAASGFTFSNYNMNWVRQAPGKGLEWISNIYGSSRYIYYADSVKGRFTISRDNAKNSLYLQMNSLRAEDTAVYYCVRSYYGGMDVWGRGTLVTVSS
VL: QSALTQPRSVSGSPGQSVTISCTGTSSDVGGYYSVSWYQQHPGKAPKLMIYYDSNRPSGVPDRFSGSKSGNTASLTISGLQAEDEADYYCSSYTGYSTRVFGQGTKLEIK
notes: as for B4
B9: anti-Gal3 scFv D11 (scFv, V domains shown, not shown: small tags and cut ends)
VH: EVQLVESGGSLVKPGGSLRLSCAASGFTFSNYNMNWVRQAPGKGLEWISSIYGSSRYIYYADFVKGRFTISRDNAKNSLYLQMNSLRAEDTAVYYCVRSSYGGMDVWGRGTLVTVSS
VL: QSVLTQPASVSGSPGQSITISCAGTSSDVGGSYNVAWYQQHPGKAPKLMIYYDSYRPSGVSNRFSGSKSGNTASLTISGLQAEDEADYYCSSYTGYSTRVFGGGTKLEIK
notes: Periplasmic extract from E. coli; also called D11 (scFv)
B10: anti-Gal3 scFv E07 (scFv, V domains shown, not shown: small tags and cut ends)
VH: EVQLVESGGSLVKPGGSLRLSCAASGFTFSNYNMNWVRQAPGKGLEWISNIYGSSRYIYYADFVKGRFTISRDNAKNSLYLQMNSLRAEDTAVYYCVRSYYGGMDVWGRGTLVTVSS
VL: QSVLTQPASVSGSPGQSITISCAGTSSDVGGYYSVSWYQQHPGKAPKLMIYYDSNRPSGVSNRFSGSKSGNTASLTISGLQAEDEADYYCSSYTGYSTRVFGGGTKLEIK
notes: Periplasmic extract from E. coli; also called E07 (scFv)
B11: anti-Gal3 scFv E12 (scFv, V domains shown, not shown: small tags and cut ends)
VH: EVQLVESGGSLVKPGGSLRLSCAASGFTFSNYAMNWVRQAPGKGLEWISSIYGSSRSIYYADFVKGRFTISRDNAKNSLYLQMNSLRAEDTAVYYCVRSNNAGMDVWGRGTLVTVSS
VL: QSVLTQPASVSGSPGQSITISCAGTSSDVGGYYDVSWYQQHPGKAPKLMIYYDSYRPSGVSNRFSGSKSGNTASLTISGLQAEDEADYYCSSYTSYSTRVFGGGTKLEIK
notes: Periplasmic extract from E. coli; also called E12 (scFv)
B12: anti-Gal3 variant antibody D06-G1 (antibody, V domains shown)
VH: EVQLVESGGGLVKPGGSLRLSCAASGFTFSNYNMNWVRQAPGKGLEWISSIYGSSRYIYYADSVKGRFTISRDNAKNSLYLQMNSLRAEDTAVYYCVRSGYGGMDVWGRGTLVTVSS
VL: QSALTQPASVSGSPGQSITISCTGTSSDVGGYNGVSWYQQHPGKAPKLMIYYDSYRPSGVSNRFSGSKSGNTASLTISGLQAEDEADYYCSSGTDYSTRVFGQGTKLEIK
notes: as for B2
B13: anti-Gal3 scFv H07 (scFv, V domains shown, not shown: small tags and cut ends)
VH: EVQLVESGGSLVKPGGSLRLSCAASGFTFSNYNMNWVRQAPGKGLEWISNIDGSSRYIYYADFVKGRFTISRDNAKNSLYLQMNSLRAEDTAVYYCVRSYYGGMDVWGRGTLVTVSS
VL: QSVLTQPASVSGSPGQSITISCAGTSSDVGGYYNVAWYQQHPGKAPKLMIYYDSYRPSGVSNRFSGSKSGNTASLTISGLQAEDEADYYCSSSTGYSTRVFGGGTKLEIK
notes: Periplasmic extract from E. coli; also called H07 (scFv)
B14: anti-Gal3 variant antibody D11-G2 (antibody, V domains shown)
VH: EVQLVESGGGLVKPGGSLRLSCAASGFTFSNYNMNWVRQAPGKGLEWVSSIYGSSRYIYYADSVKGRFTISRDNAKNSLYLQMNSLRAEDTAVYYCVRSSYGGMDVWGRGTLVTVSS
VL: QSALTQPASVSGSPGQSITISCTGTSSDVGGSYNVAWYQQHPGKAPKLMIYYDSYRPSGVSNRFSGSKSGNTASLTISGLQAEDEADYYCSSYTGYSTRVFGGGTKLEIK
notes: Variant of D11 with framework mutations to germline; captured by anti-human Fc in SPR
B15: anti-Gal3 scFv D06 (scFv, V domains shown, not shown: small tags and cut ends)
VH: EVQLVESGGSLVKPGGSLRLSCAASGFTFSNYNMNWVRQAPGKGLEWISSIYGSSRYIYYADFVKGRFTISRDNAKNSLYLQMNSLRAEDTAVYYCVRSGYGGMDVWGRGTLVTVSS
VL: QSVLTQPASVSGSPGQSITISCAGTSSDVGGYNGVSWYQQHPGKAPKLMIYYDSYRPSGVSNRFSGSKSGNTASLTISGLQAEDEADYYCSSGTDYSTRVFGGGTKLEIK
notes: Periplasmic extract from E. coli HB2151 (pHEN phagemid); also called D06 (scFv)
B16: anti-Gal3 variant antibody D11-G1 (antibody, V domains shown)
VH: EVQLVESGGGLVKPGGSLRLSCAASGFTFSNYNMNWVRQAPGKGLEWISSIYGSSRYIYYADSVKGRFTISRDNAKNSLYLQMNSLRAEDTAVYYCVRSSYGGMDVWGRGTLVTVSS
VL: QSALTQPASVSGSPGQSITISCTGTSSDVGGSYNVAWYQQHPGKAPKLMIYYDSYRPSGVSNRFSGSKSGNTASLTISGLQAEDEADYYCSSYTGYSTRVFGGGTKLEIK
notes: as for B14

Experiments:
[1] = biological target: T1, human full-length Galectin-7 (human, UniProt P47929 1-136); assay: ELISA on His-tag-immobilised antigen (3 µg/mL), periplasmic extract with scFv, anti-scFvTag.HRP, OD 450 nm
T1 construct: full-length; Histidine-tagged; also called Hu-Gal7; Gal7
T1 sequence (P47929 whole entry): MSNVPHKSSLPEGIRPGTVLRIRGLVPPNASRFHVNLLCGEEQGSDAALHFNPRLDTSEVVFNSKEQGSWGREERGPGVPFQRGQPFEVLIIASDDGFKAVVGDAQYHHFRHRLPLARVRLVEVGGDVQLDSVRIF
Protocol: (§1) Hu-Gal3-FL, Hu-Gal3-CRD, m-Gal3-FL, Hu-Gall and Hu-Gal7 were immobilized at 3 μg/mL final concentration through their histidine tag on functionalized microplates following internal process. Periplasmic extracts containing scFvs were added into the wells and detected with an anti-scFvTag.HRP (horseradish peroxidase) antibody. Rabbit antibodies directed against Gal3 (ab53082-abcam reference), Gall (ab25138-abcam reference), and Gal7 (ab108623-abcam reference) were used at 5 μg/mL as antigen-coating positive controls and detected with an anti-rabbit.HRP secondary antibody (7074S-Cell Signaling reference).

[2] = biological target: T2, human full-length Galectin-1 (human, UniProt P09382 2-135); assay: as above
T2 construct: full-length; Histidine-tagged; also called Hu-Gall; Gall
T2 sequence (P09382 2-135 limits assumed): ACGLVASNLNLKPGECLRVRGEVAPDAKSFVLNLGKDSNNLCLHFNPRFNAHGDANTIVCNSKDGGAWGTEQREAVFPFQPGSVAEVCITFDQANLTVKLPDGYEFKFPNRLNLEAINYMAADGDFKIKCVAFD
Protocol: as §1

[3] = biological target: T3, full length human Galectin-3 (human, UniProt P17931 2-250); assay: SPR Biacore T-200, antibody captured by anti-human Fc, Gal3 in solution
T3 construct: Printed as 'full length'; recombinant, immobilized through a histidine tag; also called hu-Gal3-FL; Hu-Gal3-FL
T3 sequence (P17931 2-250 limits assumed): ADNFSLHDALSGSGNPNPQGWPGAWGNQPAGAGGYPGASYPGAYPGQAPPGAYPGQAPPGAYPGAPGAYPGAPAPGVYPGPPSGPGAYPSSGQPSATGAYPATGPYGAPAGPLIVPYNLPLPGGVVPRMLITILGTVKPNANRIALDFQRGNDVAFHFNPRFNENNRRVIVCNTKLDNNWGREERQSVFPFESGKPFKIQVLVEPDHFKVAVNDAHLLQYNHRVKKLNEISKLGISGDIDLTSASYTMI
Protocol: The CM5 sensor surface was first immobilized with an anti-human Fc mAb using a standard protocol. The entire sensor surface was first activated by injecting a 1:1 (v/v) mixture of 400 mM EDC and 100 mM NHS at a flow rate of 10 μL/minute for 7 minutes. Monoclonal anti-human Fc antibody (Millipore AP113), 25 μg/mL in Na acetate pH5, 360 s were flowed at 10 μL/minute to reach 10000 RU on both flow cells followed by the injection of 1 M ethanolamine, pH8.5 for 7 minutes at a flow rate of 10 μL/minute. During the entire immobilization procedure, HBS-P was used as the running buffer.
Antibody samples were prepared at 5 μg/ml and were injected for 30 seconds at 10 μL/minute. In general, 400 to 680 resonance units of antibodies were captured on the chip.

| Binder | binding result [1] | binding result [2] | Kd [3] [nM] |
| --- | --- | --- | --- |
| B1 | no binding | no binding |  |
| B2 |  |  | 6.8 |
| B3 | no binding | no binding |  |
| B4 |  |  | 15 |
| B5 | no binding | no binding |  |
| B6 | no binding | no binding |  |
| B7 | no binding | no binding |  |
| B8 |  |  | 12 |
| B9 | no binding | no binding |  |
| B10 | no binding | no binding |  |
| B11 | no binding | no binding |  |
| B12 |  |  | 9.6 |
| B13 | no binding | no binding |  |
| B14 |  |  | 18 |
| B15 | no binding | no binding |  |
| B16 |  |  | 15 |
